Assay results taken from PMC3355305, “Localized Dimerization and Nucleoid Binding Drive Gradient Formation by the Bacterial Cell Division Inhibitor MipZ” (Molecular Cell, 2012).

Tested on: MipZ or its mutant derivatives (immobilized, homotypic)
Assay: SPR analysis of MipZ self-association / dimer dissociation
Type: binding, Caulobacter crescentus
Experimental: Figure 2 Biochemical Analysis of MipZ Dimerization (A) ATPase cycle of MipZ. See the main text for details. (B and C) SPR analysis of MipZ self-association. […] After the binding phase, the chip was washed with buffer lacking protein and nucleotides to follow the dissociation reaction. The rate constants (koff) determined for the dissociation of the MipZ and MipZ-D42A complexes are 0.83 min^−1 and 0.067 min^−1, respectively. (D) Nucleotide-dependent dimerization of MipZ. MipZ-D42A was incubated with ADP (blue), ATP (orange) or ATPγS (red) and subjected to size exclusion chromatography. (E) ATPase activity of MipZ and its mutant derivatives. The graph gives the average turnover rate (kapp, average turnovers/min per molecule of MipZ) of the different MipZ derivatives (6 μM). Data represent the average of at least three independent experiments (±SD). Note that consistent with a critical role of the metal cofactor in dimerization and catalysis Mg^2+ was required for ATP turnover (Figure S2H). (F) Concentration dependence of the MipZ ATPase activity. The average turnover rate of MipZ (kapp) was determined at the indicated protein concentrations. […]

B1: MipZ: P loop ATPase and cell division inhibitor of Caulobacter crescentus; hexahistidine-tagged in vitro, YFP fusion in FRAP (protein)
chain: MAETRVIVVGNEKGGAGKSTIAVHLVTALLYGGAKVAVIDLDLRQRTSARFFENRRAWLDNKKIELPEPLALNLSDNDVALAERPEEEQVAGFEAAFARAMAECDFILIDTPGGDSAITRMAHGRADLVVTPMNDSFVDFDMLGTVDPVTLELTKPSLYSLTVWEGRKQRALSGQRQAMDWVVLRNRLATTEARNRKRLEDRLNALAKRVGFRIGPGLRDRVIYRELFPFGLTIADLSPQVRPVPVSLQHLAARQELRALMHSLGLSAYSGETMLAAQ
modifications: left off: His6, end not stated, state not stated
notes: hexahistidine-tagged in vitro, YFP fusion in FRAP
In the presence of 1 mM ATPγS
  dissociation rate constant (koff) of the dimeric complex: 0.003 s⁻¹
In the presence of ATP, chip washed with buffer lacking protein and nucleotides
  dissociation rate constant (koff) of the dimeric complex: 0.0138 s⁻¹
